Here are results for five variants from FireProtDB (doi:10.1021/bi201253b).

First the molecules themselves.
B1: D210S, A5H7H0 (parent)
chain: MQLQNFLSIVLLVVSGAIAGTVMDHDKIAKLPASGSPLETKFQPQLHIGNGCHSYPAVDAQGNWSGGLKPTGAPSAACKDTSKAQTYVRSATFQGKTALVYAWYMPKDEISTGIGHRHDWEGAVVFLNSDTQQIDGVAASAHGKWRKYPNPGGANIDDTHVKLQYSAEPVINSHALDLTDKGGDLPTLASWEGMGADARAAINERSHWGDANPPIADSLIGSSLSGAWMW

Variants of B1 are the subject of this data set. The note with it: Moniliophthora perniciosa; pH 7.2; Thermal; CD; sodium phosphate buffer 4mM; EDTA CaCl2 with ZnCl2 62.5 micro M 120 micro M 120 micro M; structure 3ST1; whole UniProt chain shown.

For D210S, the midpoint of thermal melting (Tm) amounted to 38.7 °C and the “change of melting temperature, mutant - wild type (higher = more stable)” value (from here on “change of melting temperature, mutant”) was -1.25 °C.

As for V170R, the Tm was determined as 37.7 °C and the “change of melting temperature, mutant” value was -2.26 °C.

For D119K, the Tm turned out to be 40.2 °C and the “change of melting temperature, mutant” value is 0.25 °C.

With H116S, the Tm worked out at 39.9 °C and the “change of melting temperature, mutant” value is -0.07 °C.

For the variant H116A, the Tm was determined as 40.4 °C and the “change of melting temperature, mutant” value turned out to be 0.4 °C.
